Results as given in the DeepSol protein solubility set.

Test: soluble on expression in E. coli; label from the status in PepcDB or PDB records

| Sequence | soluble on expression in E. coli |
| --- | --- |
| MGSDKIHHHHHHMNFIDTLKSVDLILSTGEVPLIVGESGIGKTALANKLAKENDWSLIVIDGNLLKEGEIGGLPTIESYVGVNSNGYKTEKKTTVYAVHNKLREIDEEISKSKTVLLFIDEINRCEHTVQQELMNLILNREINGYKLHDDVKILAAMNPSSKYGSDFDYQVVDMDAAQENRFVWLNMESDHTQWIKWAIDEGIERKVIEFISTFPEYLHKINEDDVRATPRSYERVSKIYKVYKEKNNSIPRAVFLNVVKGNVGKVIAEEFISFIESNFEPLISYEDVFLGESIDESIVERVKNESHTRLYLSAMNILKDLELNIKNDKYESNHYINRFIEFLKMYPVDLMIGIMKDIRNSYIEVYKKAIENEEFVKSYFESYSLIRG | not soluble |
| MSITSTDICQAADALKGFVGFNRKTGRYIVRFSEDSFGMDVADDSITPTSEFVWSSVRDDVMRLGREQLQILLEQNINERLNIGEPLLVYLRRQDLPEITAQRQLR | not soluble |
| TPRGYTTWVNTIQTNGLLNEASQNLFGILSVDCTSEEMNAFLDVVPGQAGQKQILLDAIDKIADDWDNRHPLPNAPLVAPPQGPIPMTARFIRGLGVPRERQMEPAFDQFRQTYRQWIIEAMSEGIKVMIGKPKAQNIRQGAKEPYPEFVDRLLSQIKSEGHPQEISKFLTDTLTIQNANEECRNAMRHLRPEDTLEEKMYACRDIG | soluble |
| GIDPFTGIDPFTGTQACITAASAVSGIIADLDTTIMFATAGTLNREGAETFADHREGILKTAKVLVEDTKVLVQNAAGSQEKLAQAAQSSVATITRLADVVKLGAASLGAEDPETQVVLINAVKDVAKALGDLISATKAAAGKVGDDPAVWQLKNSAKVMVTNVTSLLKTVKAVEDEATKGTRALEATTEHIRQELAVFCSPEPPAKTSTPEDFIRMTKGITMATAKAVAAGNSCRQEDVIATANLSRRAIADMLRACKEAAFHPEVAPDVRLRALHYGRECANGYLELLDHVLLTLQKPNPDLKQQLTGHSKRVAGSVTELIQAAEAMKGT | soluble |
| FASVLQGVFEYPYGCAEQTASKGYAALWLDDATIRSLGIQGVTPAQRLERLEGALGRLASLQTTNGHFSMWGGNSDVNPVLTPYIAGFLLDAKDAGFAVSDAVLQKALNRLSEDLLSGAHLFYGNDQSEALMFAHQAWSGYVLARVNRAPLGTLRTLYDNERGKAVSGLSLVHLGVALSLQGDRKRGEAAIEAGFAKSEGGRPEVFGDYGSVIRDNALMIALVRAHGLAKPAYEARVMALGRDLQARRRSGWLWLSTQEQVALAQ | not soluble |
| QTSPMTPDITGKPFVAADASNDYIKREVMIPMRDGVKLHTVIVLPKGAKNAPIVLTRTPYDASGRTERLASPHMKDLLSAGDDVFVEGGYIRVFQDVRGKYGSEGDYVMTRPLRGPLNPSEVDHATDAWDTIDWLVKNVSESNGKVGMIGSSYEGFTVVMALTNPHPALKVAVPESPMIDGWMGDDWFNYGAFRQVNFDYFTGQLSKRGKGAGIARQGHDDYSNFLQAGSAGDFAKAAGLEQLPWWHKLTEHAAYDAFWQEQALDKVMARTPLKVPTMWLQGLWDQEDMWGAIHSYAAMEPRDKRNTLNYLVMGPWRHSQVNYDGSALGALNFEGDTARQFRHDVLRPFFDQYLVDGAPKADTPPVFIYNTGENHWDRLKAWPRSCDKGCAATSKPLYLQAGGKLSFQPPVAGQAGFEEYVSDPAKPVPFVPRPVDFADRAMWTTWLVHDQRFVDGRPDVLTFVTEPLTEPLQIAGAPDVHLQASTSGSDSDWVVKLIDVYPEEMASNPKMGGYELPVSLAIFRGRYRESFSTPKPLTSNQPLAFQFGLPTANHTFQPGHRVMVQVQSSLFPLYDRNPQTYVPNIFFAKPGDYQKATQRVYVSPEQPSYISLPVR | soluble |
| LREQVQDLFNKKYGEALGIKYPVQVPYKRIKSNPGSVIIEGLPPGIPFRKPCTFGSQNLERILAVADKIKFTVTRPFQGLIPKPDE | soluble |
| MSLTRRDFAGRSALTGAGVVLAGSVGALATAPNALASTDTDSVGAEHDGHDHHHGHGHGGVGYGPLLPDPDGILALPAGFRYEIITYSGRTKLESGEYTPSNHDGTAAFDGPRGTTLLVNNHELGGHRDDWPHPVPLTEGLVYDPAAAGGCTVVEVRRGGHVAEWVGIAGTATNCAGGSTPWGTWLTCEETEDRAGEEGMTKDHGYVFEVDPEDRRANREPKPVKALGRYAHEAVVIDPKRGHAYLTEDASGPNGLLYRWTPPEHFRHGRGRLRTLADDAGVLQAFKCFDSGGKFVDDLSRATRTGTVYGVDWVDVPDRDAQTTSVRKQFAAGEVTRARKLEGMWWADGGAYVVSSFARDESPGRPHDGQVWFYDPKRRTLTLKVLLGVNADPSADGAFDGPDNITVSPYGGLVIAEDGDGVQHLFGATDSGRTYPIARNELNLGTEDDPEYSEFTGVTFSPDGRTLYANIQTPGIMLAITGPWKRQKRR | soluble |
| DTTYGCPGEWRCLKAAALGEGKFDEPVRVIGFVRCECPGNTLVPNIGMTMKLSEVKPDAIYFSSCMLRDPGCPYRSAEEWAKIVENAFQIPVKLGTH | not soluble |
| MTEKLKNSKEVIAYIAECFPKCFTLEGEAKPLKIGIFQDLAERLNEDEKVSKTQLRAALRQYTSSWRYLHGVKPGAVRVDLDGNPCGELEEEHVEHAKATLAESKAKVQARRKEQAQKAREEGKAKAKPAANKKPQQPRRTNKPKVQKPTKPVETRALNADEITVGNAVNVNMGKGNMAATIVEINKDDVRVQLANGLQMVVKAEHLRA | soluble |
| GMDNSEEKKLEALGAFEISRKMLALAQKNEKSNIFLNAGRGNPNWIQTLARLAFVRLVQFGVTESKLTINNGIMAGYINTDGIRERLFAFLDPDKNDEDKFLIDAVNYCHTELGLNRDKVVAEWVNGAVANNYPVPDRCLVNTEKIINYFLQELSYKDANLAEQTDLFPTEGGTAAIVYAFHSLAENHLLKKGDKIAINEPIFTPYLRIPELKDYELVEVDLHSYEKNDWEIEPNEIEKLKDPSIKALIVVNPTNPTSKEFDTNALNAIKQAVEKNPKLMIISDEVYGAFVPNFKSIYSVVPYNTMLVYSYSKLFGCTGWRLGVIALNEKNVFDDNIAHLDKVELRQLHKRYSSVVLDPDKMKFIDRLCADSRSIGLYHTAGLSTPQQIMEALFSMTHLLTSTNGGSDDPYIDIARKLVSERYDQLHDAMQAPKDETDTNTHYYSLIDIYRLAEKIYGKEFRDYLTNNFEQVDFLLKLAEKNGVVLVDGVGFGAKPGELRVSQANLPTEDYALIGKQVLELLKEYYEEFKQNN | soluble |
| MGSDKIHHHHHHMYIDGVFSGGGVKGIALAGAYEVLEEKGFRFKRVAGTSAGAIIAAFIASGYTSKEIHALIEEVDGEKLLDQRYSFLPLKMLQWVSIYWRLGLYKGDTIEKWIADLLRAKGIRVFGDLQKGSLRLIASDLTNGTMIVLPDDLARYGLNPDMFPVARAVRMSCSIPYFFEPIKLKTDTGTATVVDGGVLSNFPIWLFSKERKRPVIGVTLAPRERERPKKNIRNAFELFGALFETMKDAHDARHIASRYEQNIIFLPVDDVMATDFHLTQQKKLALIELGKRRTELFLKQWTY | not soluble |
| RENFPGVSWDSLPDELLLGIFSCLCLPELLKVSGVCKRWYRLASDESLWQTLDLTGKNLHPDVTGRLLSQGVIAFRCPRSFMDQPLAEHFSPFRVQHMDLSNSVIEVSTLHGILSQCSKLQNLSLEGLRLSDPIVNTLAKNSNLVRLNLSGCSGFSEFALQTLLSSCSRLDELNLSWCFDFTEKHVQVAVAHVSETITQLNLSGYRKNLQKSDLSTLVRRCPNLVHLDLSDSVMLKNDCFQEFFQLNYLQHLSLSRCYDIIPETLLELGEIPTLKTLQVFGIVPDGTLQLLKEALPHLQINCSHFTTIARPTIGNKKNQEIWGIKCRLTLQKPSCL | soluble |
| GPGSMEDYKAKGNDAFKAKRYQEAIDWYTKAIELDPNGEASGALYSNRAGSWQNLNNFEKAAADSEQCIRLRPDWLKGYFRLGVAMESMVKYDEAQKAFQKALQLSPGNEEGWTSCTPLILKFASAYEKTKSRSARPLKKPSNLATPS | soluble |
| MGSDKIHHHHHHMDKLASEYKVLIVDDVPTNVMLVQAILKKEGYTLLTCDSGTKALRIANEKHPNLILLDIMMPEMDGYEVLQHLKSNPETTDIPVIIMSALSDMQSIVKGYQLGATEYVTKPFQREELVKRVAHRYELYSIKRIKAELENTIESRDTLYSVIAHDLRSPLGSLKMMNNAILMMVDKERVGDEVYEMIQMMNKTSEEIFLLLDNLLKWAKNRLNKQHVYKQQTDINSIIDSTAEMYVPMAAQKGVKIILENLDKELVGLVDIDMLKTIIRNLISNAMKFSFEGGTITLSSRSEGDFVTVSVKDTGKGIKKEDQDKLLKQDSHFTTYGTKNEKGSGLGLMLCKDFVELHGGKLWFESEGEGKGTTFLFSMKALNQEA | not soluble |
| MSLTSPKRNIVGFTIVNDKHEFAQRLINAFKAEAKANKYEALVATSQNSRISEREQILEFVHLKVDAIFITTLDDVYIGSAIEEAKKAGIPVFAIDRMIRSDAVVSSITSNNQMIGEQLASYIKNELIKQTGRSTGRIVEITGTANVYTTNERHRGFLKGIENEPTLSIVDSVSGNYDPVTSERVMRQVIDSGIPFDAVYCHNDDIAMGVLEALKKAKISGKIVVGIDGNRAILEAVDMKSMDATVVQSAEEMMKVAFSALKLHTKNKKIPDRFYTYSYLYDGSREGHHHHHH | soluble |
| MSLNKLEKEASVFFKKNQESVSQDFKKKVSSIEMFSTSLNSEENQSLDRLFLSETQNLSDEESYQEDVLSVKLLTSQIKAIQKQHVLLLGEKIYNARKILSKSCFSSTTFSSWLDLVFRTKSSAYNALAYYELFISLPSTTLQKEFQSIPYKSAYILAARKGDLKTKVSVIGKVCGMSNASAIRVMDQLLPSSRSKDNQRFFESDLEKNRQLSDLLVELLRIVCSGVFLSPYNENLLQQLFEVYKQKSEGHHHHHH | soluble |
| MGSDKIHHHHHHAQVTPFTYFNVDWQFNAPISNNFANKASGWGMNFEGGYYVLPDLSIGAFINYHTNNEYISRQTLPISNSAALTTDQQHSVFQLPFGFATHYRFSDGACQPYIGLKLGANYTKMSSDFYIYEVKDNTWGFYVSPEVGVNIYPWTNSIGFHLAAFYSYSTNKGTVFNYDMDKLNNFGFRLGVAF | not soluble |
| MKQVCVLGNGQLGRMLRQAGEPLGIAVWPVGLDAEPTAVPVQQSVITAEIERWPETALTRELARHPAFVNRDVFPIIADRLTQKQLFDKLGLATAPWQLLTSTDEWSGIFDRLGELAIIKRRVGGYDGRGQWRLRADETGQLPDDCYGECIVERGIHFSGEVSLVGARAHDGSTVFYPLTHNLHQDGILRTSVAFPQANAEQQEQAESMLSAIMQALNYVGVMAMECFITPEGLLINELAPRVHNSGHWTQNGASISQFELHLRAITGLPLPAPVINAPSVMINLIGSELNYDWLKLPLVHLHWYDKAVRPGRKVGHLNLTDSDTSRLSATLEALSPLLPGEYASGIIWAQSKLK | not soluble |
| MFSPSTTTLFRFVECTEDQHALEILEILNDAIINSTALYDYKPRSKESMAAWFATKRQNNFPIIGAVNEVGQLLGFASWGSFRAFPAYKYTVEHSVYIHKDYRGLGLSKHLMNELIKRAVESEVHVMVGCIDATNVASIQLHQKLGFIHSGTIQQAGFKFGRWLDAAFYQLTLDTPLHPQDD | soluble |
| MSAEAVAAAPIAEEATPVVYYSIESNDRVVLKISEQAIKQSATLSNSITNLGYSAENAESMVPIPIEKVNGKTLKLVVEWCEHHKADPVPEAYPSGNTVLPVWDRKFVDIEHDALTDLVNASNFLEVMTLLTYCCKFIAGLAKGMSPEEMRVFFCIPTDEEDEKAERFGKEKTEASATSADTTA | not soluble |
